Measured values taken from publication PMC7585203 (2020).
Where a chain is given by its changes, count along the chain named. Where no end group is shown, it is not given here. [ ]: non-standard residue; d: D form. The star is where a group is joined. 5FAM = O=C1OC2(c3ccc(O)cc3Oc3cc(O)ccc32)c2ccc(C(=O)*)cc21; Me2 = dimethyl on lysine side chain; PEG = not defined here

Experiments:
Experiment in all cases: FP
[1] = biological target: T1, GST-tagged chromodomain Y-like protein isoform 2 (CDYL1b) chromodomain ( (printed UniProt entry is …))
T1 chain: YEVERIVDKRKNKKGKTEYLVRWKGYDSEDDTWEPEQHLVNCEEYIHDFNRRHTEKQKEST

[2] = biological target: T2, GST-tagged UHRF1 tandem Tudor domain (TTD, a.a. 125–285) ( (printed UniProt entry is …, UniProt Q96T88 125-285))
T2 chain: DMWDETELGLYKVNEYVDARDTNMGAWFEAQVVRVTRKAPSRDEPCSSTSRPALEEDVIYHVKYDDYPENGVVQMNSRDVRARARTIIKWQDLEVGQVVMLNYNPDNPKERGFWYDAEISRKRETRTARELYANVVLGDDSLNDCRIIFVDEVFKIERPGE

MPP8 chromo = biological target: T3, MPP8 chromo (Homo sapiens)
T3 chain: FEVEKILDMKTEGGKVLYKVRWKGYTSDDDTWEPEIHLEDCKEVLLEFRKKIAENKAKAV

[3] = biological target: T4, GST-tagged UHRF1 TTD–PHD R295A/R296A ( (printed UniProt entry is …, UniProt Q96T88 125-364, R295A | R296A))
T4 sequence: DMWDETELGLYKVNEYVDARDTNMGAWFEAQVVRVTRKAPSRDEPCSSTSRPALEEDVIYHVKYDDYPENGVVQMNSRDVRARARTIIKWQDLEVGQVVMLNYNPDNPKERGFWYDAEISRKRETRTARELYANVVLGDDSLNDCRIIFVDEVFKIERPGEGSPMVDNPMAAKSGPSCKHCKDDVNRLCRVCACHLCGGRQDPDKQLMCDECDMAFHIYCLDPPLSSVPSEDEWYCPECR

[4] = biological target: T5, GST-tagged UHRF1 TTD-L2 (a.a. 125–301) ( (printed UniProt entry is …, UniProt Q96T88 125-301))
T5 chain: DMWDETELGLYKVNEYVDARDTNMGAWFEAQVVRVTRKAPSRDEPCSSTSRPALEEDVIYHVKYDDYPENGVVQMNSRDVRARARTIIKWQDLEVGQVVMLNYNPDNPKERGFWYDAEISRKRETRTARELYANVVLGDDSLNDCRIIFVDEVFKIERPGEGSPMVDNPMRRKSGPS

[5] = biological target: T6, GST-tagged UHRF1 TTD–PHD (a.a. 125–364) ( (printed UniProt entry is …, UniProt Q96T88 125-364))
T6 chain: T4 sequence with A171R, A172R

[6] = biological target: T7, GST-tagged UHRF1 TTD–PHD S298E ( (printed UniProt entry is …, UniProt Q96T88 125-364, S298E))
T7 sequence: T4 sequence with A171R, A172R, S174E

[7] = biological target: T8, UHRF1 full-length (a.a. 1–793), MBP fusion ( (printed UniProt entry is …, UniProt Q96T88 1-793))
T8 chain: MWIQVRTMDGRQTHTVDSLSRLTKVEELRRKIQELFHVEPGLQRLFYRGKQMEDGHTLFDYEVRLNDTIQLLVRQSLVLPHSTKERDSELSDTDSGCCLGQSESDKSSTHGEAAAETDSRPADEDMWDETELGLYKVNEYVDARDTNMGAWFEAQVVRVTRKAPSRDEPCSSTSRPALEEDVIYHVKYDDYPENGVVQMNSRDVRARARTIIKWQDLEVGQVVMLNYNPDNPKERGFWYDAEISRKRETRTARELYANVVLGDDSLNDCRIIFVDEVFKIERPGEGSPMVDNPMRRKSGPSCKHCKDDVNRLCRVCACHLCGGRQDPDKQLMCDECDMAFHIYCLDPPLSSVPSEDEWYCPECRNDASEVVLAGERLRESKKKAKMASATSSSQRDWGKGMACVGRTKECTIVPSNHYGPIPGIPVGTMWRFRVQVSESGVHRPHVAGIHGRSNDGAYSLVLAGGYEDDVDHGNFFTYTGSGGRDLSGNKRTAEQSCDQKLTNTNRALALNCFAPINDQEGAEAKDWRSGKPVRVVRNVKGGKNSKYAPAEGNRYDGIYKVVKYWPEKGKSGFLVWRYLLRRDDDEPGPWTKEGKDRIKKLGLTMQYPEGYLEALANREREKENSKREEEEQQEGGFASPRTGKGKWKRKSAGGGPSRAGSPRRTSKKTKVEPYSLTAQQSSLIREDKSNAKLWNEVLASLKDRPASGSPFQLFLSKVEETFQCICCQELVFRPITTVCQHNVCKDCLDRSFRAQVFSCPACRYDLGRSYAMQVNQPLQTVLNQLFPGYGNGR

{FAM}-IPKRRTARK(Me2)QLPK (not fully specified (C-terminus); printed as FAM-LIG1(118–130)K126me2 peptide) [FAM-LIG1(118–130)K126me2 peptide] gave a Kd [1] of 6.5 µM, a Kd [2] of 40 nM and a Kd (MPP8 chromo) of 32 µM. The Kd [3] was 8 nM, the Kd [4] was 10 nM and the Kd [5] was 10 nM. The Kd [6] was 10 nM.

In the case of 5FAM-IPKRRTARK(Me2)QLPK[PEG][dK][dK][dK][dR][dK][dV]-NH2 (reading uncertain) [FAM-LIG1(118–130)K126me2-PEG-CPP], the Kd [7] is reported as 8 nM.
